Assay results: patent US20210147507A1, “METHODS TO AUGMENT OR ALTER SIGNAL TRANSDUCTION” (Bellicum Pharmaceuticals, Inc., priority 2017, published 2021)
Changes are numbered by the printed parent chain. Names may count otherwise.

B1: 316ATPF^319AVPI (SMAC/Diablo) (protein, UniProt P55211 1-416, looked up, variant T317V F319I)
chain: MDEADRRLLRRCRLRLVEELQVDQLWDALLSRELFRPHMIEDIQRAGSGSRRDQARQLIIDLETRGSQALPLFISCLEDTGQDMLASFLRTNRQAAKLSKPTLENLTPVVLRPEIRKPEVLRPETPRPVDIGSGGFGDVGALESLRGNADLAYILSMEPCGHCLIINNVNFCRESGLRTRTGSNIDCEKLRRRFSSLHFMVEVKGDLTAKKMVLALLELAQQDHGALDCCVVVILSHGCQASHLQFPGAVYGTDGCPVSVEKIVNIFNGTSCPSLGGKPKLFFIQACGGEQKDHGFEVASTSPEDESPGSNPEPDAVPIQEGLRTFDQLDAISSLPTPSDIFVSYSTFPGFVSWRDPKSGSWYVETLDDIFEQWAHSEDLQSLLLRVANAVSVKGIYKQMPGCFNFLRKKLFFKTS
B2: 402GCFNF^406AAAAA (protein, UniProt P55211 1-416, looked up, variant G402A C403A F404A N405A F406A)
chain: B1 chain with V317T, I319F, G402A, C403A, F404A, N405A, F406A
B3: 402GCFNF^406YCSTL (Casp-2) (protein, UniProt P55211 1-416, looked up, variant G402Y F404S N405T F406L)
chain: B1 chain with V317T, I319F, G402Y, F404S, N405T, F406L
B4: T317C (protein)
chain: GFGDVGALESLRGNADLAYILSMEPCGHCLIINNVNFCRESGLRTRTGSNIDCEKLRRRFSSLHFMVEVKGDLTAKKMVLALLELARQDHGALDCCVVVILSHGCQASHLQFPGAVYGTDGCPVSVEKIVNIFNGTSCPSLGGKPKLFFIQACGGEQKDHGFEVASTSPEDESPGSNPEPDACPFQEGLRTFDQLDAISSLPTPSDIFVSYSTFPGFVSWRDPKSGSWYVETLDDIFEQWAHSEDLQSLLLRVANAVSVKGIYKQMPGCFNFLRKKLFFKTSASRA
B5: D327G (protein)
chain: B4 chain with C183T, D193G
B6: D330A-T317E (protein)
chain: B4 chain with C183E, D196A
B7: C403S (protein)
chain: B4 chain with C183T, C269S
B8: F326K (protein)
chain: B4 chain with C183T, F192K
B9: N405T (protein)
chain: B4 chain with C183T, N271T
B10: D327R (protein)
chain: B4 chain with C183T, D193R
B11: Q328R (protein)
chain: B4 chain with C183T, Q194R
B12: N405A (protein)
chain: B4 chain with C183T, N271A
B13: D330A-Y153F (protein)
chain: B4 chain with Y19F, C183T, D196A
B14: L329K (protein)
chain: B4 chain with C183T, L195K
B15: F404A (protein)
chain: B4 chain with C183T, F270A
B16: F404S (protein)
chain: B4 chain with C183T, F270S
B17: F319A (protein)
chain: B4 chain with C183T, F185A
B18: D327K (protein)
chain: B4 chain with C183T, D193K
B19: D330A-Y153A (protein)
chain: B4 chain with Y19A, C183T, D196A
B20: T317E (protein)
chain: B4 chain with C183E
B21: P318A (protein)
chain: B4 chain with C183T, P184A
B22: L329G (protein)
chain: B4 chain with C183T, L195G
B23: D315A-D330A (protein)
chain: B4 chain with D181A, C183T, D196A
B24: C403T (protein)
chain: B4 chain with C183T, C269T
B25: A331K (protein)
chain: B4 chain with C183T, A197K
B26: D330A-N405T (protein)
chain: B4 chain with C183T, D196A, N271T
B27: Q328K (protein)
chain: B4 chain with C183T, Q194K
B28: F406L (protein)
chain: B4 chain with C183T, F272L

Tested on: chimeric Caspase-9 polypeptide
Experiment: Caspase-9 mutant classes and basal activity (Table 5)
Format: cell-based
Conditions: Caspase-9 mutant class; for Basal Activity: basal (ligand-independent) signaling compared with unmodified chimeric Caspase-9; for IC50: ligand IC50 compared with unmodified chimeric Caspase-9
Description: Even though homo-dimerization of wild-type initiator Caspase-9 is energetically unfavorable, making them mostly monomers in solution [14-16], the low-level inherent basal activity of unprocessed Caspase-9 [15, 17] is enhanced in the presence of the Apaf-1-based “apoptosome”, its natural allosteric regulator [6]. Moreover, supra-physiological expression levels and/or co-localization could lead to proximity-driven dimerization, further enhancing basal activation. The modified cells of the present application may comprise nucleic acids coding for a chimeric Caspase-9 polypeptide having lower basal signaling activity. Polynucleotides comprising Caspase-9 mutants with lower basal signaling may be expressed in the modified cells used for cell therapy herein. In these examples, the modified cells may include a safety switch, comprising a polynucleotide encoding a lower basal signaling chimeric Caspase-9 polypeptide. In the event of an adverse event following administration of the modified cells comprising the chimeric signaling polypeptides or chimeric antigen receptors herein, Caspase-9 activity may be induced by administering the dimerizer to the patient, thus inducing apoptosis and clearance of some, or all of the modified cells. In some examples, the amount of dimerizer administered may be determined as an amount designed to remove the highest amount, at least 80% or 90% of the modified cells. In other examples, the amount of dimerizer administered may be determined as an amount designed to remove only a portion of the modified cells, in order to alleviate negative symptoms or conditions, while leaving a sufficient amount of therapeutic modified cells in the patient, in order to continue therapy. Methods for using chimeric Caspase-9 polypeptides to induce apoptosis are discussed in PCT Application Number PCT/US2011/037381 by Malcolm K. Brenner et al., titled Methods for Inducing Selective Apoptosis, filed May 20, 2011, and in U.S. patent application Ser. No. 13/112,739 by Malcolm K. Brenner et al., titled Methods for Inducing Selective Apoptosis, filed May 20, 2011, issued Jul. 28, 2015 as U.S. Pat. No. 9,089,520. Chimeric caspase polypeptides having modified basal activity are discussed in PCT Application Serial Number PCT/US2014/022004 by David Spencer et al., titled Modified Caspase Polypeptides and Uses Thereof, filed Mar. 7, 2014, published Oct. 9, 2014 as WO2014/164348, and in U.S. patent application Ser. No. 13/792,135 by David Spencer et al., titled Modified Caspase Polypeptides and Uses Thereof, filed Mar. 7, 2014; and in U.S. patent application Ser. No. 14/640,553 by Spencer et al., filed Mar. 6, 2015. Methods for inducing partial apoptosis of the therapeutic modified cells are discussed in PCT Application Number PCT/US14/040964 by Kevin Slawin et al., titled Methods for Inducing Partial Apoptosis Using Caspase Polypeptides, filed Jun. 4, 2014, published Dec. 11, 2014 as WO2014/197638, and in U.S. patent application Ser. No. 14/296,404 by Kevin Slawin et al., titled Methods for Inducing Partial Apoptosis Using Caspase Polypeptides, filed Jun. 4, 2014. These patent applications and publications are all incorporated by reference herein in their entireties.

Sequence of chimeric Caspase-9 polypeptide (P62942 2-108 F37V limits assumed): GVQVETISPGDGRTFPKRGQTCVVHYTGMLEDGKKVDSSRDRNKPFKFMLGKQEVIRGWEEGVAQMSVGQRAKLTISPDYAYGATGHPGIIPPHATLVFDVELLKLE

Row | Molecule | Basal Activity | IC50 | Catalytic activity (class 'Catalytically dead')
1 | B1 | Similar | Similar | –
2 | B2 | – | – | dead
3 | B3 | – | – | dead
4 | B4 | Similar | Similar | –
5 | B5 | Increased | – | –
6 | B6 | – | – | dead
7 | B7 | Similar | Similar | –
8 | B8 | Increased | – | –
9 | B9 | Increased | – | –
10 | B10 | Increased | – | –
11 | B11 | Increased | – | –
12 | B12 | Similar | Similar | –
13 | B13 | – | – | dead
14 | B14 | Increased | – | –
15 | B15 | – | – | dead
16 | B16 | – | – | dead
17 | B17 | Similar | Similar | –
18 | B18 | Increased | – | –
19 | B19 | – | – | dead
20 | B20 | Increased | – | –
21 | B21 | Similar | Similar | –
22 | B22 | Increased | – | –
23 | B23 | – | – | dead
24 | B24 | Similar | Similar | –
25 | B25 | Increased | – | –
26 | B26 | Increased | – | –
27 | B27 | Increased | – | –
28 | B28 | – | – | dead
